Measured values published in patent US20080234198A1 (Eli Lilly, published 2008).
Changes are numbered by the printed parent chain.

T1: human VPAC2 receptor (human, UniProt P41587 24-438)
T1 construct: whole, on cells; CHO-S cell line stably expressing human VPAC2 (cAMP assays)
T1 sequence (looked up): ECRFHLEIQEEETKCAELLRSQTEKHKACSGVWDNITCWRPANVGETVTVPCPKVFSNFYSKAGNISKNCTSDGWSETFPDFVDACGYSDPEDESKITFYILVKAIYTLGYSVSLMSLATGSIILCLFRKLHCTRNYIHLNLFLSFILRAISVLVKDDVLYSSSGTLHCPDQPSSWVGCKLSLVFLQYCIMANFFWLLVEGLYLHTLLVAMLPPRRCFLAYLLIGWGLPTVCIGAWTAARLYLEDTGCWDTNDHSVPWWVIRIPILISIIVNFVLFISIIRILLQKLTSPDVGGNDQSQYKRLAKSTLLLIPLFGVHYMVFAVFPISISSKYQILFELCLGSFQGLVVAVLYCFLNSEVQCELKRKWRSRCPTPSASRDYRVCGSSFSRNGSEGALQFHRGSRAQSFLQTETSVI

T2: rat VPAC1 receptor (rat, UniProt P30083 31-459)
T2 sequence (looked up): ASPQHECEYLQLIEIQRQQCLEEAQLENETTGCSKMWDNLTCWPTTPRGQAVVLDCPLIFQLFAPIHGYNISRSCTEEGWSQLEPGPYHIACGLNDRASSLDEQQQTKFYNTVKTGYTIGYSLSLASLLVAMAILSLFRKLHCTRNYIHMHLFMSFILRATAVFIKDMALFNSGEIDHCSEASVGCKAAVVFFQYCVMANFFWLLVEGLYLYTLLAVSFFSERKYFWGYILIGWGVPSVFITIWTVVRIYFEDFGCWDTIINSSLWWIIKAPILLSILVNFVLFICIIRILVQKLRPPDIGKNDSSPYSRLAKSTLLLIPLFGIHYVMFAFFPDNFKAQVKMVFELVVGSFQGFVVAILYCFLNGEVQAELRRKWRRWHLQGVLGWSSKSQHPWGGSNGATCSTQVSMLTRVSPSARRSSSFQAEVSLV

T3: rat VPAC2 receptor (rat, UniProt P35000 23-437)
T3 sequence (looked up): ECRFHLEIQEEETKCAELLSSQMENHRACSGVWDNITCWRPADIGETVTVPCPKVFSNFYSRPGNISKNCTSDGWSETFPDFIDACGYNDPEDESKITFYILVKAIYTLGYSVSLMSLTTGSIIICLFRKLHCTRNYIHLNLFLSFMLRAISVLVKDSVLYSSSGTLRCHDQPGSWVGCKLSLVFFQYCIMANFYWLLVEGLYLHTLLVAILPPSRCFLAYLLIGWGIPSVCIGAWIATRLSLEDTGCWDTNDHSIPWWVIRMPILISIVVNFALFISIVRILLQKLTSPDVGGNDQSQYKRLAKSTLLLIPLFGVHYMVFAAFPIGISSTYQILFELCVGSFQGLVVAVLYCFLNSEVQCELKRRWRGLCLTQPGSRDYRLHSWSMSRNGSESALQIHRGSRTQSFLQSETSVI

T4: human VPAC2 receptor (human), P41587
T4 chain: T1 sequence (looked up)

B1: P580 (peptide)
peptide: HSDAVFTEQYTXLRXQLAXXXYLQXIXXCGGPSSGAPPPC
modifications: C6-HSDAVFTEQY(OMe)TOrnLRAibQLAAbuAibOrnYLQAibIOrnOrnC(PEG20K)GGPSSGAPPPC(PEG20K)-NH2
B2: P572 (peptide)
peptide: B1 peptide with X25S
modifications: C6-HSDAVFTEQY(OMe)TOrnLRAibQLAAbuAibOrnYLQSIOrnOrnC(PEG20K)GGPSSGAPPPC(PEG20K)-NH2
B3: P570 (peptide)
peptide: HSDAVFTEQYTXLRXQLAXXXYLQXIXXGGPSSGAPPPCC
modifications: C6-HSDAVFTEQY(OMe)TOrnLRAibQLAAbuAibOrnYLQAibIOrnOrnGGPSSGAPPPC(PEG30K)C(PEG30K)-NH2
B4: P590 (peptide)
peptide: B3 peptide with A18X, X19A, X25S
modifications: C6-HSDAVFTEQY(OMe)TOrnLRAibQLAbuAAibOrnYLQSIOrnOrnGGPSSGAPPPC(PEG20K)C(PEG20K)-NH2
B5: P602 (peptide)
peptide: B3 peptide with L23X, X25S
modifications: C6-HSDAVFTEQY(OMe)TOrnLRAibQLAAbuAibOrnYAibQSIOrnOrnGGPSSGAPPPC(PEG30K)C(PEG30K)-NH2
B6: P574 (peptide)
peptide: B3 peptide
modifications: C6-HSDAVFTEQY(OMe)TOrnLRAibQLAAbuAibOrnY(OMe)LQAibIOrnOrnGGPSSGAPPPC(PEG20K)C(PEG20K)-NH2
B7: P582 (peptide)
peptide: B3 peptide with X25S
modifications: C6-HSDAVFTEQY(OMe)TOrnLRAibQLAAbuAibOrnY(OMe)LQSIOrnOrnGGPSSGAPPPC(PEG20K)C(PEG20K)-NH2
B8: P533 (peptide)
peptide: HSDAVFTEQYTXLRXQXAAXXYLQSIXXGGPSSGAPPPS
modifications: here or on the partner: C6-HSDAVFTEQY(OMe)TOrnLRAibQK(WPEG40K)AAAibOrnYLQSIOrnOrnGGPSSGAPPPS-NH2

Columns and labels:
[1] = biological target: T1, human VPAC2 receptor; assay: filter binding, VPAC2 cell membranes, displacement of 125I-VIP
Description: Binding assays: Membrane prepared from a stable VPAC2 cell line (see Example 3) or from cells transiently transfected with human VPAC1 or PAC1 are used.
The assay plate is filled with 25 μL assay buffer, 25 μL membranes (2.5 μg) suspended in assay buffer, 25 μL agonist in assay buffer, and 25 μL tracer (about 40000 cpm) in assay buffer. The filled plate is incubated for 1 hour with shaking.
The transfer from assay plate to filter plate is conducted. The blocking buffer is aspirated by vacuum filtration and washed two times with flush buffer. 90 μL is transferred from the assay plate to the filter plate. The 90 μL transferred from assay plate is aspirated and washed three times with 200 μL flush buffer. The plastic support is removed. It is dried for 1 hour at 60° C. 30 μL Microscint is added. The count is performed.

[2] = biological target: T2, rat VPAC1 receptor; assay: cell-based or functional assay
[3] = biological target: T3, rat VPAC2 receptor; assay: cell-based or functional assay
[4] = biological target: T1, human VPAC2 receptor; assay: cell-based or functional assay
[5] = biological target: T4, human VPAC2 receptor (human), P41587; assay: filter binding, VPAC2 cell membranes, displacement of 125I-VIP; settings: remark: other sources report otherwise

Binder | IC50 [1] [nM] | Rat VPAC1 Receptor: DiscoveRx: (EC50; nM) [2] [nM] | Rat VPAC2 Receptor: DiscoveRx: (EC50; nM) [3] [nM] | Human VPAC2 Receptor: Alphascreen (EC50; nM) [4] [nM] | Human VPAC2 Receptor: DiscoveRx (EC50; nM) [4] [nM] | IC50 [5] [nM]
HSDAVFTEQYTRXRXQLAAXXYLQSIKXXGGPSSGAPPPC (C6-HSDAVFTEQY(OMe)TRAibRAibQLAAAibOrnY(OMe)LQSIKAibOrnGGPSSGAPPPC(PEG40K)-NH2) [P417] | 24.1 | 232 | 8.7 | 14.7 | – | –
HSDAVFTEQYTXLRXQLAXXXYLQSIXXCGGPSSGAPPPS (C6-HSDAVFTEQY(OMe)TOrnLRAibQLAAbuAibOrnYLQSIOrnOrnC(PEG40K)GGPSSGAPPPS-NH2) [P566] | 8.2 | 52.7 | 13.1 | 11.8 | 7.8 | –
B1 | 20.7 | 1.1 | 11.9 | 10.9 | – | –
B2 | 14.9 | 94.5 | 10.8 | 11.2 | – | –
B3 | 4.1 | 86.7 | 21.3 | 13.4 | 4.5 | –
B4 | 7.4 | 245 | 6.9 | 4.1 | – | –
B5 | 28 | 209 | 36.9 | 42.1 | 7.2 | –
B6 | 32.3 | 163 | 33.8 | 21.2 | 36.1 | –
B7 | 48.3 | 137 | 31 | 20.3 | – | –
B8 | – | – | – | – | – | 959
HSDAVFTEQYTXLRXQVAAXXYLQSIXXGGPSSGAPPPS (C6-HSDAVFTEQY(OMe)TOrnLRK(CO(CH2)2SPEG40K)QVAAAibOrnYLQSIOrnOrnGGPSSGAPPPS-NH2) [P485] | 17.3 | 735 | 42.5 | 44.5 | – | –
HSDAVFTEQYTXLRXQVAAXCYLQSIXXGGPSSGAPPPS (C6-HSDAVFTEQY(OMe)TOrnLRAibQVAAAibC(PEG40K)YLQSIOrnOrnGGPSSGAPPPS-NH2) [P460] | 914 | > 1000 | 1160 | 430 | – | –
